Substitutions are numbered along the chain they refer to.
T1: Spike (S) protein of live MERS-CoV EMC/2012 (wild type virus) (MERS-CoV, UniProt K9N5Q8 18-1353)
T1 sequence: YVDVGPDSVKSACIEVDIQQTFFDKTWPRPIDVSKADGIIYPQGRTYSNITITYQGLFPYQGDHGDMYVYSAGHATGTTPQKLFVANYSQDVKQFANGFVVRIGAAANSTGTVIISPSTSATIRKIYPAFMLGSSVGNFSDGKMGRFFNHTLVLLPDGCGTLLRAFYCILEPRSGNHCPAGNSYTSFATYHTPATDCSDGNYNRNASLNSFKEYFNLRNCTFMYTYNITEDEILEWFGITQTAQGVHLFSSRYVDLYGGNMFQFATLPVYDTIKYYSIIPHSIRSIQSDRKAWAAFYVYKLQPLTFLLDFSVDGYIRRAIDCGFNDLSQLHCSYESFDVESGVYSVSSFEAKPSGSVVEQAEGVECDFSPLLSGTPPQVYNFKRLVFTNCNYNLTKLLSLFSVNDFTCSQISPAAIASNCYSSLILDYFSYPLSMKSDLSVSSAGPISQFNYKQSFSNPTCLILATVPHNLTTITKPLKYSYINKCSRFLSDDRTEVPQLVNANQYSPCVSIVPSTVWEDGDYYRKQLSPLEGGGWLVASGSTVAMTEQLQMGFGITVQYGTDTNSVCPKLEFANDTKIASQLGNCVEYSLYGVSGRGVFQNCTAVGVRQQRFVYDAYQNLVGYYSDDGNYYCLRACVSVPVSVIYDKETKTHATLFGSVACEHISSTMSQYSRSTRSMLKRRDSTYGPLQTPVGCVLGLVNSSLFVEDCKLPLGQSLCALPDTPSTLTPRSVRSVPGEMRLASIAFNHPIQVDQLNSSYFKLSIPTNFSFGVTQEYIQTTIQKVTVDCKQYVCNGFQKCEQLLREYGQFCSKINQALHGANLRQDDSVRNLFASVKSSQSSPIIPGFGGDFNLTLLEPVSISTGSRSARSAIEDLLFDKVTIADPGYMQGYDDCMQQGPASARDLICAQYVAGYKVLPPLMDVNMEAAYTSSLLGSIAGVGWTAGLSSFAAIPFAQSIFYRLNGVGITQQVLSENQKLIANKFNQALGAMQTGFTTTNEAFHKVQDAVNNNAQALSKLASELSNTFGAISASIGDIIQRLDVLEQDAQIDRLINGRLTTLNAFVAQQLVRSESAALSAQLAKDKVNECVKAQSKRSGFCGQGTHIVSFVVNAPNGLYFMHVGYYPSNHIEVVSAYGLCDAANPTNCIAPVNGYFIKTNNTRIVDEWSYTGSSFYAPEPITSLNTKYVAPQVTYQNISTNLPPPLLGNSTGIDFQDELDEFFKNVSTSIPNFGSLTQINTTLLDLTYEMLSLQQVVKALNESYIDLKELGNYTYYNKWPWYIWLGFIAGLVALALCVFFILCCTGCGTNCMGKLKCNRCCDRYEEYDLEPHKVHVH

B1: 3A1 scFvFc (scFv, V domains shown)
VH: QVQLVQSGAEVKKPGSSVKVSCKASGGTFSSYAVSWVRQAPGQGLEWVGRIIPIFGKANYAQKFQGRVTITADKSTSTAYMELSSLRPEDTAVYYCARDQGISANFKDAFDIWGQGTTVTVSS
VL: ETTLTQSPATLSVSPGERATLSCRASESVGSNLAWYQQKPGQAPSLLIYGASTRATGIPDRFSGSGSGTDFTLTISSLQSEDFAAYYCQQYNNWPLTFGPGTKVEIK
B2: 3A1 IgG1 (antibody, V domains shown)
VH: B1 VH
VL: B1 VL
B3: 1F8 scFvFc (scFv, V domains shown)
VH: EVQLVQSGAEVKEPGSSVKVSCKASGGTFGSYAINWVRQAPGQRLEWMGWIDAANGNTKYSQKFQGRVTITGDTSASTAYMELSSLRSEDTAVYYCARDRWMTTRAFDIWGQGTMVTVSS
VL: QPVLTQPPSASGTPGQRVTISCSGSSSNIGSNYVFWYQQLPGMAPKLLISRNNQRPSGVPDRFSGSKSGTSASLAISGPQSEDEADYYCAAWDDSLRGPVFGGGTRVTVL
B4: 1F8 IgG1 (antibody, V domains shown)
VH: B3 VH
VL: B3 VL
B5: 1E9 scFvFc (scFv, V domains shown)
VH: QVQLVQSGGGVVQPGRSLRLSCVASEFTFNTYGMHWVRQAPGKGLEWVAAISYDGTKKFYADSLKGRFTISRDNSKNTLYLQMNSLRSEDTAVYYCARSGDSDAFDIWGQGTMVTVSS
VL: SYELTQPPSVSVSPGQTATITCSGDELGDKFAFWYQQKPGQSPVLVIYQDSKRPSGIPERFSGSNSGNTATLTISGTQALDEADYYCQAWDSNSYVFGTGTKVTVL
B6: 3B12 scFvFc (scFv, V domains shown)
VH: QVQLVQSGAEVKKPGSSVKVSCKASGGTFSSYAISWVRQAPGQGLEWMGGIIPIFGTANYAQKFQGRVTITADKSTSTAYMELSSLRSEDTAVYYCARASYCSTTSCASGAFDIWGQGTLVTVSS
VL: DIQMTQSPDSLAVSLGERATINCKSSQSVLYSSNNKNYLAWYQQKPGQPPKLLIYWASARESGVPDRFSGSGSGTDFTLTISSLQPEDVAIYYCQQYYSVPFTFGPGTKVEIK
B7: 3B11 IgG1 (antibody, V domains shown)
VH: B6 VH with A99V, S100G, T104S, A108H, S109I, L120T
VL: ETTLTQSPGTLSLSPGERATLSCRASQSVSSSIAWYQQKPGQAPRLLMFDSSTRATGIPDRFSGSGSGTDFTLNISSLEPEDFAVYYCQQYSSSPYTFGQGTKLEIK

Molecular target: T1, Spike (S) protein of live MERS-CoV …
Test: cell-based or functional assay

Binder | IC50 (PRNT50, live wt. virus)
B1 | 1.46 µg/mL
B2 | 4.5 µg/mL
B3 | 6.27 µg/mL
B4 | 4.05 µg/mL
B5 | 3.21 µg/mL
B6 | 1.25 µg/mL
B7 | 3.5 µg/mL
